The supplement of paper PMC10065799, “High-throughput profiling of sequence recognition by tyrosine kinases and SH2 domains using bacterial peptide display” (eLife, 2023)

Experiments:
[1] = target: SHP2-C SH2; experiment: SH2 binding enrichment of the phosphorylated peptide, bacterial display (enrichment ratio); higher = better substrate or ligand; peptides without Tyr show the background
[2] = target: Grb2 SH2 (UniProt P62993); experiment: as above
[3] = target: c-Src SH2; experiment: as above
[4] = target: Hck (UniProt P08631); experiment: phosphorylation enrichment, bacterial display (enrichment ratio); higher = better substrate or ligand; peptides without Tyr show the background
Hck, sequence (P08631 whole entry, looked up): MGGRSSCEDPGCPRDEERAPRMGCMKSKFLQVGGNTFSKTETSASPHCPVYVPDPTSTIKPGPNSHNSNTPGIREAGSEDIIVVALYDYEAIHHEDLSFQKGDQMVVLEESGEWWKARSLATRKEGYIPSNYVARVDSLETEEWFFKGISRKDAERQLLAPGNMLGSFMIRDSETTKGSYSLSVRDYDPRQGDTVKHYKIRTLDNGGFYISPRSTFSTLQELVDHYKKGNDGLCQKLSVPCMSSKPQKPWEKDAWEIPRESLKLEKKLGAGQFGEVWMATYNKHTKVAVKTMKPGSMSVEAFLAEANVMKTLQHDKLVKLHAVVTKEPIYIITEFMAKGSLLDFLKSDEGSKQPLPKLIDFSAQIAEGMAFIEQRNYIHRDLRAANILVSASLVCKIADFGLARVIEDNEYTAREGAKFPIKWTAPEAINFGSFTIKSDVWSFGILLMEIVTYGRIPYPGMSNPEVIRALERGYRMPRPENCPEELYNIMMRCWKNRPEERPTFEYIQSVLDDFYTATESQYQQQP

[5] = target: FGFR1 (UniProt P11362); experiment: as above
FGFR1, sequence (P11362 whole entry, looked up): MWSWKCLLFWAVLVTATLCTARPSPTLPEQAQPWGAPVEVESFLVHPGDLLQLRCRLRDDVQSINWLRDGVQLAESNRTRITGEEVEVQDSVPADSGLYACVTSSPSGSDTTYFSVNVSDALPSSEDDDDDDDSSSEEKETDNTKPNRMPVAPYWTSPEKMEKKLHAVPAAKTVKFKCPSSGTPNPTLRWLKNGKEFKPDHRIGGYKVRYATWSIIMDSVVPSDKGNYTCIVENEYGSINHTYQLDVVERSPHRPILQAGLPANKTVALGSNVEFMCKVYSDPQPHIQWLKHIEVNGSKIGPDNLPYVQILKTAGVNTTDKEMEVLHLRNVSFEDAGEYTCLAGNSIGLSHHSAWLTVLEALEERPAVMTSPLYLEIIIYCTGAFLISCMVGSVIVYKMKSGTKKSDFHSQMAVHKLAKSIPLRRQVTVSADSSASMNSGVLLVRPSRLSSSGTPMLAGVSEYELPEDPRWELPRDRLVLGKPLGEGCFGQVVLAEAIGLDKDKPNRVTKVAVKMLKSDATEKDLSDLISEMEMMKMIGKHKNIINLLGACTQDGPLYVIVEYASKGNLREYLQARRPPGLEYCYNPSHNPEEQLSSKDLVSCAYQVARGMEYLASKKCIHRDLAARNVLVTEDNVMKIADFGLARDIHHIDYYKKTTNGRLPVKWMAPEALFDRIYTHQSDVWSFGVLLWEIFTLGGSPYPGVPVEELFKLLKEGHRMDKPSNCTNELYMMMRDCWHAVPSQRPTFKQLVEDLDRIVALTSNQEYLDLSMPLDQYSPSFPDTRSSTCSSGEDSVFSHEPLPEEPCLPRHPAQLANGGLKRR

[6] = test system: c-Src; experiment: as above
[7] = target: EPHB1 (UniProt P54762); experiment: as above
[8] = test system: c-Abl (mouse); experiment: as above
[9] = target: Jak2 (UniProt O60674); experiment: as above
Jak2, sequence (O60674 whole entry, looked up): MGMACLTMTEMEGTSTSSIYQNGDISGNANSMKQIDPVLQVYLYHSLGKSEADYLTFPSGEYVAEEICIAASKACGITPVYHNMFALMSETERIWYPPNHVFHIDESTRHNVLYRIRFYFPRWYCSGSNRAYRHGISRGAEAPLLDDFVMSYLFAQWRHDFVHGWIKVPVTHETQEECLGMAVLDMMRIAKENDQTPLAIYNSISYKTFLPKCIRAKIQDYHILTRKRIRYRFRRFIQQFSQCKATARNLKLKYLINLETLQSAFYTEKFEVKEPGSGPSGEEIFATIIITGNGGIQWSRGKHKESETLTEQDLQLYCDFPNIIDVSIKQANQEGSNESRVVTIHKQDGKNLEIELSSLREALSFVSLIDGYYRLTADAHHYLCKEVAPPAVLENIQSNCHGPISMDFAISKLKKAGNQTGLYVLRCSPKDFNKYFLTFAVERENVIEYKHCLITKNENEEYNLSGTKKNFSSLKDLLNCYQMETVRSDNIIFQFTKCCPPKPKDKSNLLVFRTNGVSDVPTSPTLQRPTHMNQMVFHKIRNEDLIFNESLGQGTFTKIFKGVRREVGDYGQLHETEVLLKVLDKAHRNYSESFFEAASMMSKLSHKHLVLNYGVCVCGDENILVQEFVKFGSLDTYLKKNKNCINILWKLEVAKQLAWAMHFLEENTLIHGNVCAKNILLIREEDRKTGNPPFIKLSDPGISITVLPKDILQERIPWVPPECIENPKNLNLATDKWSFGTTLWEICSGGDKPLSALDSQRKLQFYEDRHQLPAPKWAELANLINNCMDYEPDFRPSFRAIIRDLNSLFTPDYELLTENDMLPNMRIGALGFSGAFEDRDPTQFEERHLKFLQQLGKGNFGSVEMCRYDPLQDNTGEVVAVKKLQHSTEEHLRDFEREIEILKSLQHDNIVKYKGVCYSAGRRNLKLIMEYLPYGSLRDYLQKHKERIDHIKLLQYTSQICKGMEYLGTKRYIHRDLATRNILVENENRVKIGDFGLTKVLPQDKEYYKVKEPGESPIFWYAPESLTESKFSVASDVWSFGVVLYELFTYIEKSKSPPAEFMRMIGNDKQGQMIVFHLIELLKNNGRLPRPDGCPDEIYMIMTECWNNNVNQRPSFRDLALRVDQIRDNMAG

[10] = test system: AncSZ; experiment: as above
[11] = target: MERTK (UniProt Q12866); experiment: as above
MERTK, sequence (Q12866 whole entry, looked up): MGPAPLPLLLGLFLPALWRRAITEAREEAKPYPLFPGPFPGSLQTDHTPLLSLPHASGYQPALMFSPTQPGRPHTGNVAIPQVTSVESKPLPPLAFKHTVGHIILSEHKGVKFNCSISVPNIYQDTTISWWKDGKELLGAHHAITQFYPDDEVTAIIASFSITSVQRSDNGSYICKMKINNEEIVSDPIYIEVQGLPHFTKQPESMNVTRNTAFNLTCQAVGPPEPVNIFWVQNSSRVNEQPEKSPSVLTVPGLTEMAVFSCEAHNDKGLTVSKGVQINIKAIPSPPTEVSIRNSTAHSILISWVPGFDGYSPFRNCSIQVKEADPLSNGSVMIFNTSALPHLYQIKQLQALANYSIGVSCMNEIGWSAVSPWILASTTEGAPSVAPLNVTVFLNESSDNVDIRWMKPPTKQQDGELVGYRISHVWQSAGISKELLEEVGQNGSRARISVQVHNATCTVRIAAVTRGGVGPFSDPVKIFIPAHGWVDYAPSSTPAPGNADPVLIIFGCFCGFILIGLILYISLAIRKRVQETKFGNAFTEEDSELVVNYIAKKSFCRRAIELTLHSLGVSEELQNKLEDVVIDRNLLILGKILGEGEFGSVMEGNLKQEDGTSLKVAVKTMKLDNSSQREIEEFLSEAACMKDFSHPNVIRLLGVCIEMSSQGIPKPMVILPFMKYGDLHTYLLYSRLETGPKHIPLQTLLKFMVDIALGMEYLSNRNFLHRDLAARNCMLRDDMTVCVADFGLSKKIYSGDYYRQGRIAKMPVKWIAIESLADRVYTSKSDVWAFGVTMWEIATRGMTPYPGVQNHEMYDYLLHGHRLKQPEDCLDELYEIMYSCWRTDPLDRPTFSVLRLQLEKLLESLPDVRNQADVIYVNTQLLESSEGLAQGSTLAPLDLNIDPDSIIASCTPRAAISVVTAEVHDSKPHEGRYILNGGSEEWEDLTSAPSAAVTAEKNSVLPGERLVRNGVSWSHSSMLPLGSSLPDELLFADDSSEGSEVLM

[12] = target: FGFR3 (UniProt P22607); experiment: as above
FGFR3, sequence (P22607 whole entry, looked up): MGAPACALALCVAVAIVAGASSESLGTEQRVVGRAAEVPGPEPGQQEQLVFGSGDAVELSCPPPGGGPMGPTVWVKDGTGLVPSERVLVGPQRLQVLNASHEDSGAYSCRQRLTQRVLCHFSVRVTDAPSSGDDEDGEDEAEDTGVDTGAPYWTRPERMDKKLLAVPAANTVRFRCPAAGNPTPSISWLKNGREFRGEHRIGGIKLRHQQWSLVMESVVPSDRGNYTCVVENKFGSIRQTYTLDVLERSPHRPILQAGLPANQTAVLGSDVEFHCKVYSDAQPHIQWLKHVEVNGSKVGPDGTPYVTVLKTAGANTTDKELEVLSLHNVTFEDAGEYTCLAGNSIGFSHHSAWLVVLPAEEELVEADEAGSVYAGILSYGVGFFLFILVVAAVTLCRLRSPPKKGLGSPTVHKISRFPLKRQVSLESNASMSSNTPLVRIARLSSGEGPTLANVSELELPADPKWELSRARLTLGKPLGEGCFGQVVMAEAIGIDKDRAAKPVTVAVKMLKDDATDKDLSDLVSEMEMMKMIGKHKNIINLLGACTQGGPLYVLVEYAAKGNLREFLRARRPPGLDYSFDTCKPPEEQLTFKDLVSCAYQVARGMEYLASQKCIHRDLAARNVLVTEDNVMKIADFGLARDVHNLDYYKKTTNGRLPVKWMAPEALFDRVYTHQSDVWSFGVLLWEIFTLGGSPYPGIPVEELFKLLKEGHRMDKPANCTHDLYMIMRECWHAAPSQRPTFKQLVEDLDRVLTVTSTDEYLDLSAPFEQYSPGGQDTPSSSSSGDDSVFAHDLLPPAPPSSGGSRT

[13] = target: EPHB2 (UniProt P29323); experiment: as above
[14] = target: Fyn (UniProt P06241); experiment: as above
Fyn, sequence (P06241 whole entry, looked up): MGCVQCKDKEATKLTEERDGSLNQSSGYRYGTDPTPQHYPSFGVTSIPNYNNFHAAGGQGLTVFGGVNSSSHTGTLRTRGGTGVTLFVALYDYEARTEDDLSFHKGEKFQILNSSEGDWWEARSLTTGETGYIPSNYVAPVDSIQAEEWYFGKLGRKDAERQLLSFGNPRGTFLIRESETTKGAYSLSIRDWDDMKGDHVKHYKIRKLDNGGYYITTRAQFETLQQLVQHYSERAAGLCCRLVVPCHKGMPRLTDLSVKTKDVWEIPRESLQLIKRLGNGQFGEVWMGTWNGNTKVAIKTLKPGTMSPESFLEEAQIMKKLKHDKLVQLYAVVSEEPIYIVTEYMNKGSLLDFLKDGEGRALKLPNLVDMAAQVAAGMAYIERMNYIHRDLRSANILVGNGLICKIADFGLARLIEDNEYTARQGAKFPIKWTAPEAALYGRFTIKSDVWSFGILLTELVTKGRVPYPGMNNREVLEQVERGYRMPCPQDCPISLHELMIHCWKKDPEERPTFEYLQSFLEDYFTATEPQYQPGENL

[15] = target: Fes (UniProt P07332); experiment: as above
[16] = test system: Fer (mouse); experiment: as above
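Throughout, for SH2 binding enrichment of the phosphorylated peptide, bacterial display: peptide library displayed on the E. coli surface as eCPX fusions, selected cells deep-sequenced, score is each peptide's frequency after selection divided by its frequency in the input.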
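Throughout, for phosphorylation enrichment, bacterial display: 11-residue human phosphosite peptides and single-mutation variants displayed on the E. coli surface, counted by deep sequencing, each peptide's frequency after selection divided by its frequency in the unselected input library; frequency after pTyr selection over input frequency; kinase dosed for 20-30% of maximal phosphorylation in three min.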

Sequence | SH2 binding enrichment [1] | SH2 binding enrichment [2] | SH2 binding enrichment [3] | phosphorylation enrichment [4] | phosphorylation enrichment [5] | phosphorylation enrichment [6] | phosphorylation enrichment [7] | phosphorylation enrichment [8] | phosphorylation enrichment [9] | phosphorylation enrichment [10] | phosphorylation enrichment [11] | phosphorylation enrichment [12] | phosphorylation enrichment [13] | phosphorylation enrichment [14] | phosphorylation enrichment [15] | phosphorylation enrichment [16]
ASMAKYYASEI [ACADSB_Y372] | 0.554 | 0.849 | 0.575 | 0.515 | 0.483 | 0.595 | 0.404 | 0.717 | 0.92 | 0.701 | 0.731 | 0.576 | 0.32 | 0.491 | 0.761 | 0.38
KVQVSYKGDTK [HSPA1A_Y107_E110D] | 0.676 | 0.949 | 0.525 | 0.392 | 0.425 | 0.473 | 0.299 | 0.615 | 0.5 | 0.491 | 0.414 | 0.378 | 0.36 | 0.372 | 0.598 | 0.328
SFTDPYAQPPL [KMT2D_Y2378_YF] | 0.656 | 0.651 | 0.534 | 0.502 | 0.487 | 0.54 | 0.475 | 0.502 | 0.722 | 0.787 | 0.468 | 0.607 | 0.527 | 0.531 | 0.832 | 0.411
TVLGEYASPKG [CYP24A1_Y407_L409S] | 0.793 | 1.02 | 0.596 | 0.578 | 0.405 | 0.468 | 0.508 | 3.4 | 0.561 | 0.733 | 0.513 | 0.482 | 0.612 | 0.498 | 0.619 | 0.371
RLRKFYLGKFL [KLB_Y906_YF] | 0.549 | 0.679 | 0.444 | 0.654 | 0.669 | 0.707 | 0.393 | 0.719 | 0.608 | 0.631 | 0.645 | 0.64 | 0.462 | 0.689 | 0.624 | 0.468
MYDKEYYSVHN [MET_Y1234] | 0.566 | 0.873 | 0.622 | 0.903 | 7.14 | 1.65 | 0.965 | 1.05 | 2.53 | 2.1 | 0.813 | 4.25 | 1.13 | 0.64 | 1.1 | 0.727
FTGVEYSSCDT [EPHA3_Y937] | 1.14 | 0.832 | 1.92 | 0.545 | 0.478 | 0.555 | 0.629 | 0.755 | 0.905 | 1.12 | 0.419 | 0.721 | 0.637 | 0.524 | 1.12 | 0.491
KLYRVYCDMNT [FGB_Y269_P265L] | 0.715 | 0.868 | 1.22 | 0.623 | 0.452 | 0.549 | 0.769 | 0.696 | 0.838 | 0.978 | 0.466 | 0.693 | 0.702 | 0.608 | 1.07 | 0.52
TFRPPYYHRDC [HGD_Y333_N337D] | 1.2 | 1.04 | 1.05 | 0.822 | 0.874 | 0.583 | 0.834 | 0.639 | 0.82 | 1.17 | 0.499 | 1.12 | 0.734 | 0.658 | 1.28 | 0.756
CERLPYDANKW [FLT1_Y815_S818N] | 0.754 | 0.619 | 0.492 | 0.43 | 0.422 | 0.477 | 0.626 | 0.804 | 1.01 | 1.11 | 0.415 | 0.817 | 0.602 | 0.506 | 1.16 | 0.615
VIKDKYPKARF [APTX_Y209_YF] | 1.25 | 1.15 | 1.04 | 0.332 | 0.425 | 0.408 | 0.339 | 0.646 | 0.772 | 0.455 | 0.374 | 0.504 | 0.297 | 0.294 | 0.672 | 0.288
KQLGEYKFQNA [ALB_Y425_E420K] | 1.04 | 0.897 | 0.565 | 0.375 | 0.468 | 0.358 | 0.348 | 0.4 | 0.525 | 0.507 | 0.399 | 0.417 | 0.386 | 0.395 | 0.565 | 0.306
EGDGVYTLNNK [HP_Y125_E130K] | 0.426 | 1.08 | 0.377 | 3.23 | 0.48 | 4.5 | 0.601 | 0.62 | 0.749 | 0.86 | 0.354 | 0.586 | 0.378 | 7.02 | 0.857 | 0.455
LIDGYYRLTED [JAK2_Y373_A377E] | 4.88 | 0.886 | 9 | 0.778 | 1.51 | 0.899 | 0.708 | 1.07 | 7.39 | 1.48 | 0.574 | 1.57 | 0.914 | 0.625 | 1.32 | 0.564
PRDSGYSFETI [MAP1B_Y1921_S1917R_YF] | 0.742 | 1.1 | 1.5 | 0.823 | 0.912 | 1.31 | 0.657 | 1.63 | 2.36 | 1.25 | 0.755 | 1.14 | 1.22 | 0.581 | 1.89 | 1.33
PIPIKYKAMKK [MYD88_Y257_L252P] | 1.1 | 1.32 | 0.822 | 0.582 | 0.383 | 0.534 | 0.407 | 0.642 | 0.665 | 0.677 | 0.382 | 0.858 | 0.495 | 0.5 | 0.72 | 0.336
GLAKEYIDPET [CSNK1G2_Y195] | 0.967 | 0.942 | 0.448 | 0.449 | 0.544 | 0.454 | 0.527 | 0.592 | 0.904 | 0.743 | 0.4 | 0.604 | 0.462 | 0.494 | 0.941 | 0.509
QDDTVYMGKVI [DCTN1_Y1244_T1249I] | 0.427 | 1.05 | 0.389 | 1.33 | 0.913 | 0.942 | 0.873 | 2.06 | 1.57 | 1.72 | 0.765 | 0.938 | 0.841 | 1.45 | 1.72 | 0.943
YNNYGYGSDGF [HNRNPH3_Y161_N163S] | 0.658 | 1.49 | 0.969 | 0.521 | 0.673 | 0.505 | 2.96 | 0.55 | 0.631 | 0.735 | 0.652 | 0.683 | 5.3 | 0.507 | 0.784 | 0.458

The next lines start with results.

SH2 binding enrichment [1] | SH2 binding enrichment [2] | SH2 binding enrichment [3] | Sequence | phosphorylation enrichment [4] | phosphorylation enrichment [5] | phosphorylation enrichment [6] | phosphorylation enrichment [7] | phosphorylation enrichment [8] | phosphorylation enrichment [9] | phosphorylation enrichment [10] | phosphorylation enrichment [11] | phosphorylation enrichment [12] | phosphorylation enrichment [13] | phosphorylation enrichment [14] | phosphorylation enrichment [15] | phosphorylation enrichment [16]
0.789 | 1.51 | 0.607 | EFEGLYQEGGG [TMEM159_Y159] | 0.842 | 0.5 | 0.658 | 0.576 | 0.551 | 0.781 | 0.974 | 0.456 | 0.612 | 0.579 | 0.675 | 0.939 | 0.585
0.743 | 0.981 | 0.708 | EREYKYGAHNH [OAT_Y50_Y55H] | 0.44 | 0.485 | 0.415 | 0.391 | 0.483 | 0.591 | 0.525 | 0.496 | 0.463 | 0.509 | 0.406 | 0.603 | 0.364
0.643 | 0.697 | 0.509 | ALPGEYIPTVF [RAC1_Y32_F28L] | 0.492 | 0.573 | 0.514 | 0.585 | 0.7 | 1.12 | 1.1 | 0.426 | 0.697 | 0.595 | 0.612 | 1.16 | 0.46
1.11 | 0.923 | 2.31 | IYKAAYFGVYD [SLC25A4_Y191_R188K] | 5.77 | 0.628 | 5.18 | 1.4 | 0.865 | 0.993 | 1.17 | 1.4 | 0.745 | 1.32 | 6.16 | 1.05 | 0.893
0.539 | 0.71 | 0.536 | DAVAVCHGKIS [SH2D1A_Y7_Y7C] | 0.458 | 0.467 | 0.406 | 0.387 | 0.59 | 0.774 | 0.658 | 0.403 | 0.628 | 0.471 | 0.472 | 0.745 | 0.467
0.683 | 0.78 | 0.538 | SVTCTYSPVLN [TP53_Y126_A129V] | 0.876 | 0.558 | 0.815 | 0.795 | 0.804 | 1.21 | 1.37 | 0.435 | 0.831 | 0.692 | 0.613 | 1.6 | 1.02
1.19 | 1.01 | 0.854 | KRAAIYNPVIF [RHO_Y301_S297R_YF] | 4.07 | 0.492 | 2.22 | 0.432 | 0.741 | 0.738 | 0.725 | 2.69 | 0.541 | 0.55 | 1.91 | 0.841 | 10.4
1.58 | 1.41 | 1.04 | TRSCKYLLLSM [NF1_Y491_Y489C] | 0.549 | 0.53 | 0.39 | 0.521 | 0.614 | 0.864 | 0.823 | 0.512 | 0.552 | 0.621 | 0.441 | 0.954 | 0.416
0.754 | 0.813 | 0.583 | VRFTEYETQVK [TARDBP_Y155] | 0.519 | 0.413 | 0.406 | 0.53 | 0.629 | 0.761 | 0.791 | 0.401 | 0.542 | 1.01 | 0.4 | 0.896 | 0.431
0.755 | 1 | 7.13 | QNTGGYYDLYG [PTPN11_Y62_D61G] | 8.85 | 13.8 | 5.87 | 1.85 | 1.01 | 6.15 | 1.32 | 8.88 | 10 | 2.78 | 8.15 | 1.64 | 2.69
